This note sets out measurements from the DeepSol protein solubility set.

This series can be described thus: soluble on expression in E. coli; label from the status in PepcDB or PDB records.
Consider “MTPPVSAFKKTPKKEEHPLVAIVILDAFDQRFAPTHESYPCFGTIPICNVPAINFALSWLMRTEVKNVMLVVSGLNADHATSVQREWRLAFDEFTVVVCDGASSVGDCMREIHNRELITGDFMLISNPTAVVSSTLSAQISEFRKRRRENPDNVMTLLYSNRENPEHLVLGINSETSKLMLFPAANSLNQLKASKKDFYDEVDIRRDLTPTGIAFCSRLIATQFSDNFDFVGIDDVVREILSKDDILGMSVHVEVLSPKERAFCAYDYESLILLNILMLERWFYPLVPENSDPSRYFSANPRNLYLEENGDEISIKANTWILNNNCSTVCLGVKTDIAYDAFIRNSCIGAHTEISSKTRITSSMIGKNCKIGENCVIEYAFIGDDVVIPNGAHIPKESIIGNGVMYPKELPNIQNTAIFKNAINEETFEKLSSQPIGNVHVSKFRNGGPFWRRSVNGKTNFALEEDDSESEYSESEEEDDGVGNSTKMFHDEVLESMQKILESENSLMRNLILEINSSKLACNVTMDEVARNVFAAFMKLKHNQDFNKMKELIVKWQPLFLNYYKTSAESLKVKSADQKRFELDLKRRCQIQLLLAIEDKFDRDESFGVKAQALVHYLYQEADILDEDSIIEWAGSIAEESKLKGLMKKIVDWLQEDDDEEESEDE”, for which the “soluble on expression in E. coli” value is recorded as “not soluble”.
The value for “MSFDKKVTIAHLSDLHFASKNDRYLTARLDTMLGEFVRRKYDHLVMTGDLIDTASPALWTIIRDALVRHGLFDWTKTTVIPGNHDLIDLEEEMRFYNALNPDDRSRQHRVDDRLRQFNAIFRPLITDNGDALAGVPFVKVMRLGGISLSFVAVNTVDPWSGLDNPAGARGSVSPETLRALQEPGVRQVLDDTFIIGLCHHAYKVYGTGALVDQVFDWTMEFKNRDEYLKAMKNLGVRLVLHGHFHRFQVYQANGINFINGGSFRYSPERYGELVINADGRWSHRFVNLALKKLEHHHHHH” was “not soluble”.
As to “AFTMEIPPTHYAASRAASVAENCINYQQGTPHKLFLVQTVQQASKEDIPGRGHKYHLKFSVEEIIQKQVTVNCTAEVLYPQMGQGSAPEVNFTFEGEIGKNPDEEDNTFYQSLMSLKRPLEAQDIPDNFGNVSPQMKPVQHLAWVACGYVMWQNSTEDTWYKMLKIQTVKQVQRNDDFIELDYTILLHDIASQEIIPWQMQVLWHPQYGTKVKHNSRLPKEGQAE”, the “soluble on expression in E. coli” value is on record as “soluble”.
The value for “MRLTEEEVQALLEKADGWKLADERWIVKKYRFQDYLQGIEFVRRIAAISENANHHPFISIDYKLITVKLSSWRAKGLTKLDFDLAKQYDEVYNQMKQGEGE” was “soluble”; that for “MARHHHHHHMPEGKIIKALSGFYYVLDESEDSDKVIQCRGRGIFRKNKITPLVGDYVVYQAENDKEGYLMEIKERTNELIRPPICNVDQAVLVFSAVQPSFSTALLDRFLVLVEANDIQPIICITKMDLIEDQDTEDTIQAYAEDYRNIGYDVYLTSSKDQDSLADIIPHFQDKTTVFAGQSGVGKSSLLNAISPELGLRTNEISEHLGRGKHTTRHVELIHTSGGLVADTPGFSSLEFTDIEEEELGYTFPDIREKSSSCKFRGCLHLKEPKCAVKQAVEDGELKQYRYDHYVEFMTEIKDRKPRY” was “soluble”; that for “MGSDKIHHHHHHMREIDVHPAFTDLNGSGPDPDLSPLPVVARVGSYSMGWRVEAHAHQRGQLMFVTNGSMRVETRDGSWITPPGRACWIPSAAVHSAIYTQASKMQTVLIAPELLETLPKRCCVIKLTPLLRELVSQAVAINNQYTLHSREHRLMQVLVDQISTAQQAPLFLPEGRDPRLRRVTESLHQNPGDDRSIEAWAQIAGASARTLARLFQKETGMTYSSWRQQLCLIRAVEMLTEGASVTNIALALGYESTAGFTSMFTRSMGESPSNYLTRWSQETTASE” was “not soluble”.
The value for “KVYSLRLNQKRNEKPSIFANENVRKALAYALDKKSLVDNILADGSKEIYGYIPEKFVYNPETNEDFRQEAGALVKTDAKKAKEYLDKAKAELNGDVAIELLSRDGDSDRKVAEFIQGQLQETLPGLTINVKTVPLNNAIELMRKGDYELSVGMWGPDYQDPMTFLESSVSGNRMNYSSPTFDQLIEEATTKYANEPETRWQTLIKAEKVLVEEDAALIPLYQEA” was “not soluble”.
The value for “MAHHHHHHMYDSRSSGVHDVAPRDGVDFMYEGPQQVLPGAHPLPLFHPDNSVTRPPVSPYLPSPQRPHPYFTTELPELPHFQTTRPIVYTVGTMKQRIVAPVFDLANNVTHTRELDPFIFGFYPETEEMAKNLSYWLVRCQNFSSKWDYENREIWRKAKKNWPNTGMGMARVGDRKNHAHPWGAHSKPVKPWNLLMPTMDVKTWSKSNRMLVTLKMLQGKLQIVERLTLPEPTQEAYLQLCRTMGWDVRHKGGGALFMDGGSRLTPSSEYDRAFFFGSFFNGRNKLVRPTLLCDEPYDYNRTSSKARTKGPKGQKNPIPINRFNAYDALTHDTLIITEGALLQLEDEMYTHKLAMLPPHIRAQLPERGFLDSEVLGDVPPALQTVQMEAAARTEEAEQAMYAPYYDNPYHPWQDEGEASYAVDAVEGTVQRYIKSRKTSWAMLS” was “not soluble”.
On to “MAREFKRSDRVAQEIQKEIAVILQREVKDPRIGMVTVSDVEVSSDLSYAKIFVTFLFDHDEMAIEQGMKGLEKASPYIRSLLGKAMRLRIVPEIRFIYDQSLVEGMRMSNLVTNVVREDEKKHVEESNLEHHHHHH”, for which the “soluble on expression in E. coli” value is reported as “soluble”.
The same measure for “SMRTAQEVETYRRSKEITVRGHNCPKPVLNFYEANFPANVMDVIARQNFTEPTAIQAQGWPVALSGLDMVGVAQTGSGKTLSYLLPAIVHINHQPFLERGDGPICLVLAPTRELAQQVQQVAAEYCRACRLKSTCIYGGAPKGPQIRDLERGVEICIATPGRLIDFLECGKTNLRRTTYLVLDEADRMLDMGFEPQIRKIVDQIRPDRQTLMWSATWPKEVRQLAEDFLKDYIHINIGALEL”: “soluble”.
The same measure for “SEETYTDSLDPEKLLQCPYDKNHQIRACRFPYHLIKCRKNHPDVASKLATCPFNARHQVPRAEISHHISSCDDRSCIEQDVVNQTRSLRQETLAESTWQCPPCDEDWDKDLWEQTSTPFAWGTTHYSDNNSPASNIVTEHKNNLASGMRVPKSLPYVLPWKNNGNAQ”: “soluble”; for “MSRDRPNKIKLPHRPGYTTYLQTGDLTSTDGEEGVYSLKLITGYTREEPEILDDVLDPSGGSSSSQRSNDPLLPASTNHPEIFDDVLDPSGGSSSSQRSNDPLLPASTFKLSCVDCKKQYNVSKSMKSQARKRKIRQDMEAEDDMLDGTGLHRMALVNVNTTMPQEAKALEELSKKLVISATLTGYDSVPINTPSKSPQVLYFQVKTHAEFDLVQEKMDKNFISQLEIESLVKSNEPFLFPYGRRRHVFTSILLATYLSLCSDEANNIDDWKDLLRNNAIIKKAVEHSDTMQKMKKYLSVDGRTMLNFYKETL”: “not soluble”; for “SDPNKAEISRLEVLPQDLLGEIVAKIGAKYAEDYHNCILSCKELGASANDERVLKTLNLAPLVKKPLSCRKHLLIMKKCLANNNPDAHYIKGIIWYFNLDHCDVGLHHIGIAAN”: “soluble”.
In the case of “MTSFDAIVIGGGHNGLVAAATLAKAGRKVLVLEAESEVGGAARTEEFAPGFRVSSIAHLLNRLHPDVVKTLELETHGLQFARADFLPSAALSKDGPALMLHGAYGEVLTGASPSEQSAWKDLRAQLLRYAGILKPFLTRRPPDLAGMSLMETASLGQTALALKKLGKEDMRDFLRVLLMNVADLLDEQLRDDRLKGLLAFDATLGSHLGPRSPTSLLGLYYRLAGEAGGAAGAQVLPQGGMGAVVAAIRAAAEKAGVTIRTSVAAAKIIVEKGHAVGVTLGTGEELRARTVVSAINPATTFLDLVGPREIDTGFVRKVKNIRMKGDAAKLHLALDRSPQFTGADAAAHKGRLVIAPSPDHVERAFNPCKYGEFSPEPVLEITLPSLADPSLAPDGACVLSAVVQYAPYALKEGWAAGKPKFIKAVMAQLEAYAPGIGKSVVHAELLTPADIETRYRMPGGHWHHGELQADQMLISRPVSGWSGYDTPVEGLFLAGAGSHPGGGVSGAPGLNAARRIIAMKGLEHHHHHH”, the “soluble on expression in E. coli” value is “soluble”.
The same measure for “MPTVRVKEGENPEYALRRFKRSCEKAGILTELRRREFYEKPTAERKRKQAAAVKRHLKKISRDVSSRRGVGHRRKKSTTLEHHHHHH”: “not soluble”.
